# In patent publication US20240024426A1, “HYPOTENSIVE PHARMACEUTICAL COMPOSITION COMPRISING TRIPLE ACTIVATOR HAVING ACTIVITY FOR ALL OF GLUCAGON, GLP-1, AND GIP RECEPTORS” (HANMI PHARM. CO., LTD., priority 2020, published 2024):
# Bridges are numbered along the chain shown (N, C = ends). Where no end group is shown, it is not given here. [ ]: non-standard residue; d: D form. The star is where a group is joined. Acetyl(2-(4-imidazolyl)) = O=C(Cc1c[nH]cn1)*; Aib = CC(C)(N)C(=O)O
# Assays:
# Experiment in all cases: cell-based or functional assay
# [1] = biological target: human GLP-1 receptor (human, UniProt P43220 24-463)
# [2] = biological target: human GCG receptor (human, UniProt P47871 26-477)
# human GCG receptor, sequence (P47871 26-477): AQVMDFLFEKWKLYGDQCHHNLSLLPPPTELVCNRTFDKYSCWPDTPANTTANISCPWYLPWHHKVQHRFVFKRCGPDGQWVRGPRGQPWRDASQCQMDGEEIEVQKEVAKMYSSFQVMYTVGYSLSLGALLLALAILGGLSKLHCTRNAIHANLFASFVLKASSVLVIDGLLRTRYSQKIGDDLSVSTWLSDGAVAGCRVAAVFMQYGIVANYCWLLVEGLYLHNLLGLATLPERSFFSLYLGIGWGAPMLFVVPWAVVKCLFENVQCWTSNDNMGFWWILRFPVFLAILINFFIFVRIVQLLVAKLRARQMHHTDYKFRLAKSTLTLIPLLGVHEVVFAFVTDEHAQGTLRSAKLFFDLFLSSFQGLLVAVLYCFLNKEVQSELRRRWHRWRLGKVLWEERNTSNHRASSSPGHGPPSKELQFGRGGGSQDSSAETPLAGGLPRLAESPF
# [3] = biological target: T1, human GIP receptor (human, UniProt P48546 22-466)
# T1 sequence (looked up): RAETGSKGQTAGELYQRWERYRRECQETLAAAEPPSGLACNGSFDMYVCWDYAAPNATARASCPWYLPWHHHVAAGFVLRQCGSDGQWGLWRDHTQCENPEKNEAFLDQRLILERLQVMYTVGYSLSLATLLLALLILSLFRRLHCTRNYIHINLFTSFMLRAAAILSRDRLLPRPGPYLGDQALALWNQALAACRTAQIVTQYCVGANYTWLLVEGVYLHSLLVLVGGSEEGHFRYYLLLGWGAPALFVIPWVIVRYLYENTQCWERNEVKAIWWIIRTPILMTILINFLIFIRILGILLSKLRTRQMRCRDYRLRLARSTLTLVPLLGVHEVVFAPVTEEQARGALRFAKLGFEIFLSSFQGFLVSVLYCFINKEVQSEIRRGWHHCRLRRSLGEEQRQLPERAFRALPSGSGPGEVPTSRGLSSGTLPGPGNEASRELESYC
Binder,In vitro activity compared with native peptide (%) vs. GLP-1 [1],In vitro activity compared with native peptide (%) vs. Glucagon [2],In vitro activity compared with native peptide (%) vs. GIP [3]
H[Aib]QGTFTSDCSKYLDERAAQDFVQWLLDGGPSSGAPPPS [Triple agonist of SEQ ID NO: 25],82.6%,0.1%,< 0.1%
H[Aib]QGTFTSDYSKYLDEKACKDFVQWLLDGGPSSGAPPPS (bridge 16-20) [Triple agonist of SEQ ID NO: 32],151%,1.7%,8.8%
Y[Aib]QGTFTSDYSKYLDECRAKEFVQWLKNGGPSSGAPPPS (bridge 16-20) [Triple agonist of SEQ ID NO: 24],41.2%,9.3%,< 0.1%
H[Aib]QGTFTSDYSKYLDEKACKEFVQWLLAQ (bridge 16-20) [Triple agonist of SEQ ID NO: 31],135%,2.2%,2.4%
H[Aib]QGTFTSDYSKYLDEKAAKEFVQWLLNTC (bridge 16-20) [Triple agonist of SEQ ID NO: 29],38.5%,6%,< 0.1%
Y[Aib]QGTFTSDYSKYLDECRAKEFVQWLLAQKGKKNDWKHNIT (bridge 16-20) [Triple agonist of SEQ ID NO: 23],4.01%,9.3%,< 0.1%
{Acetyl(2-(4-imidazolyl))}-GEGTFISDLSKYMDEQAVQLFVEWLMAGGPSSGAPPPSHG [Triple agonist of SEQ ID NO: 12],0.4%,< 0.1%,< 0.1%
{Acetyl(2-(4-imidazolyl))}-GQGTFTSDLSKQMDSEAQQLFIEWLKNGGPSSGAPPPSHG [Triple agonist of SEQ ID NO: 16],2.1%,< 0.1%,< 0.1%
H[Aib]QGTFTSDYSKYLDEKRAQEFVCWLLAQKGKKNDWKHNIT [Triple agonist of SEQ ID NO: 28],17.2%,1.6%,< 0.1%
[Acetyl(2-(4-imidazolyl))]GQGTFTSDLSIQYDSEHQRDFIEWLKDTGPSSGAPPPSHG [Triple agonist of SEQ ID NO: 19],< 0.1%,< 0.1%,< 0.1%
H[Aib]QGTFTSDYSKYLDEKAQKEFVQWLLDTC (bridge 16-20) [Triple agonist of SEQ ID NO: 30],142%,0.7%,0.8%
H[Aib]QGTFTSDCSKYLDSRAAQDFVQWLLDGGPSSGAPPPS [Triple agonist of SEQ ID NO: 26],64.5%,0.2%,< 0.1%
[Acetyl(2-(4-imidazolyl))]GQGTFTSDLSIQYEEEAQQDFVEWLKDTGPSSGAPPPSHG [Triple agonist of SEQ ID NO: 20],< 0.1%,< 0.1%,< 0.1%
{Acetyl(2-(4-imidazolyl))}-GQGTFTSDYSIQLDEIAVRDFVEWLKNGGPSSGAPPPSHG [Triple agonist of SEQ ID NO: 14],28%,< 0.1%,< 0.1%
{Acetyl(2-(4-imidazolyl))}-GQGTFTSDLSKQMDEERAREFIEWLLAQKPSSGAPPPSHG [Triple agonist of SEQ ID NO: 17],0.2%,< 0.1%,< 0.1%
H[Aib]QGTFTSDYSKYLDERACQDFVQWLLDQGGPSSGAPPPS [Triple agonist of SEQ ID NO: 27],83.1%,0.8%,0.9%
H[Aib]QGTFTSDVSSYLLGQAAKQFIAWLVKGGGPSSGAPPPSC [Triple agonist of SEQ ID NO: 3],1.8%,< 0.1%,< 0.1%
H[Aib]QGTFTSDVSSYLDGQAQKEFIAWLVKGC [Triple agonist of SEQ ID NO: 2],5.9%,< 0.1%,< 0.1%
Y[Aib]QGTFTSDYSKYLDECRAKEFVQWLLDHHPSSGQPPPS (bridge 16-20) [Triple agonist of SEQ ID NO: 21],17.8%,267%,22.7%
Y[Aib]QGTFTSDYSKCLDEKRAKEFVQWLLDHHPSSGQPPPS (bridge 16-20) [Triple agonist of SEQ ID NO: 22],20.1%,140%,59.7%
[Acetyl(2-(4-imidazolyl))]GQGTFTSDLSKQMDSERAREFIEWLKNTGPSSGAPPPSHG [Triple agonist of SEQ ID NO: 18],< 0.1%,< 0.1%,< 0.1%
{Acetyl(2-(4-imidazolyl))}-GEGTFISDYSIQLDEIAVQDFVEWLLAQKPSSGAPPPSHG [Triple agonist of SEQ ID NO: 13],< 0.1%,< 0.1%,< 0.1%
Y[Aib]QGTFTSDYSKALDEKAAKEFVNWLLDQHPSSGQPPPSC (bridge 16-20) [Triple agonist of SEQ ID NO: 101],23.2%,13.9%,40.1%
{Acetyl(2-(4-imidazolyl))}-GEGTFTSDLSKYLDSRRQQLFVQWLKAGGPSSGAPPPSHG [Triple agonist of SEQ ID NO: 11],1.4%,< 0.1%,< 0.1%
Y[Aib]QGTFTSDYSKALDEKAAKEFVQWLLDQHPSSGQPPPSC (bridge 16-20) [Triple agonist of SEQ ID NO: 100],42.2%,12.7%,118%
Y[Aib]QGTFTSDYSKALDEKAAKDFVNWLLDQHPSSGQPPPSC (bridge 16-20) [Triple agonist of SEQ ID NO: 102],23.3%,29.5%,58%
